For assay [1], the target named is surface vimentin (human (endogenous in HeLa and HT-29)) (UniProt P08670). The experiment in a line: flow cytometry on cells.
Assay [2] shares this target. The experiment in a line: flow cytometry on cells. This is another data set of the same source.

Our source for the percent of cells positive for CPMV uptake values is publication PMC3436905.

Like-named read-outs stand apart in the source and are kept apart here.

Sequence of UniProt P08670 (P08670 whole entry): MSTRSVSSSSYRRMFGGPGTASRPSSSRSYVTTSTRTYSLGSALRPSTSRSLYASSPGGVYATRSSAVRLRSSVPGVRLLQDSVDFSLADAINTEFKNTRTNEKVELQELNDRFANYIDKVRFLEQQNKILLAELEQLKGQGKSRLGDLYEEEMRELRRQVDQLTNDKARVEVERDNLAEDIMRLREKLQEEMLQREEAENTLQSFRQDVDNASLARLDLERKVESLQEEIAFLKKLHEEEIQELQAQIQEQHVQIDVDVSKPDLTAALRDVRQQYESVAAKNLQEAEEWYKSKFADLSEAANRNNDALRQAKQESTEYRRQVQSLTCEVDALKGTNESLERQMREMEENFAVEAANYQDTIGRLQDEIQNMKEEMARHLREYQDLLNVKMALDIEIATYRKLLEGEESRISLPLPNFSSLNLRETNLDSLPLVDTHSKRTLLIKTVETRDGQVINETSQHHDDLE

Regarding “Cowpea mosaic virus nanoparticles (complex)”, the percent of cells positive for CPMV uptake in assay [1] came to 38%; in assay [2], 17%.
